# Substitutions are numbered along the chain they refer to.
# B1: Nb17 (VHH)
# VHH: QVQLQESGGGLVQPGGSLRLSCAASGFTFSGSASWVRQAPGKELEWVSSISGFGGITDYADSVKGRFTISRDNSKNTLYLQNSLKPEDTAVYYCAKGRTGWTSSFLRGQGTQVTVSS
# notes: from an alpaca immunized with full-length VAR2CSA; pHEN6c vector; also called Nanobody 17; VHH; source: E. coli WK6, periplasmic extract, purified (HisTrap); not shown: His6, C-terminal, kept
# B2: Nb07 (VHH)
# VHH: QVQLQESGGGLVQAGGSLRLSCAASGFTFDDYVIGWFRQAPGKEREGVSCISRSDGSTYYADSVKGRFTISSDNAKNTIYLQMNSLKPEDTAVYHCAAAMTHFGLGPGPNEYDYWGQGTQVTVSS
# notes: from an alpaca immunized with full-length VAR2CSA; pHEN6c vector; also called Nanobody 07; VHH; source: E. coli WK6, periplasmic extract, purified (HisTrap); not shown: His6, C-terminal, kept
# B3: Nb14 (VHH)
# VHH: QVQLQESGGGLVQAGGSLRLSCAASGFTLDDYGIGWFRQAPGKEHEGVSSISSGDGSTYYADSVKGRFTISSDNAKNTVYLQNSLKPEDTAVYYCAAGGLHRPLTIATTRGYGIDYWGKGTQVTVSS
# notes: from an alpaca immunized with full-length VAR2CSA; pHEN6c vector; also called Nanobody 14; VHH; source: E. coli WK6, periplasmic extract, purified (HisTrap); not shown: His6, C-terminal, kept
# B4: Nb11 (VHH)
# VHH: QVQLQESGGGLVQAGGSLRLSCAASGRTFSSYAMGWFRQAPGREREFVALISWSGGSTTYADSVKGRFTISRDNAQNTVYLQMNSLKPEDTAVYYCTAAGSFEGEYDYWGQGTQVTVSS
# notes: from an alpaca immunized with full-length VAR2CSA; pHEN6c vector; also called Nanobody 11; VHH; source: E. coli WK6, periplasmic extract, purified (HisTrap); not shown: His6, C-terminal, kept
# B5: Nb02 (VHH)
# VHH: B4 VHH with R43K, L50F, T59S, Q76K, T97V, A99S
# notes: from an alpaca immunized with full-length VAR2CSA; pHEN6c vector; also called Nanobody 02; VHH; source: E. coli WK6, periplasmic extract, purified (HisTrap); not shown: His6, C-terminal, kept
# B6: Nb10 (VHH)
# VHH: QVQLQESGGGLVQAGGSLRLSCAASGRTFSSNLMGWLRQAPGKEREFVAAMSMSGGDTFYADSVKGRFTISRDNAKNMVHLQMNSLKPEDTAIYYCAAADVRLSAYEYDYWGQGTQVTVSS
# notes: from an alpaca immunized with full-length VAR2CSA; pHEN6c vector; also called Nanobody 10; VHH; source: E. coli WK6, periplasmic extract, purified (HisTrap); not shown: His6, C-terminal, kept
# B7: Nb01 (VHH)
# VHH: QVQLQESGGGLVQAGGSLRLSCAASGRTFNSYVMGWFRQAPGKEREFVAAISWSGGNAYYADSVKGRFTISRDNAENTVYLLMNSLKPEDTAVYYCAAALTRLARNEYDYLGQGTQVTVSS
# notes: from an alpaca immunized with full-length VAR2CSA; pHEN6c vector; also called Nanobody 01; VHH; source: E. coli WK6, periplasmic extract, purified (HisTrap); not shown: His6, C-terminal, kept
# B8: Nb12 (VHH)
# VHH: QVQLQESGGGLVQVGGSLRLSCAASGRTFSNYAMGWFRQAPGEEREFVAAISWSDNNTLYTDSVKGRFTISRDNAENTVYLQMNSLEPEDTAVYYCAAGRRPRLRVGLNEFDYWGQGTQVTVSS
# notes: from an alpaca immunized with full-length VAR2CSA; pHEN6c vector; also called Nanobody 12; VHH; source: E. coli WK6, periplasmic extract, purified (HisTrap); not shown: His6, C-terminal, kept
# B9: Nb16 (VHH)
# VHH: QVQLQESGGGLVQPGGSLRLSCVASGFTFSSVGSWVRQAPGKGLEWVSAISSFSGLRSYADSVKGRFTISRDNAKNTLYLENSLKPEDTAVYYCAKGTVRVGPWLRGQGTQVTVSS
# notes: from an alpaca immunized with full-length VAR2CSA; pHEN6c vector; also called Nanobody 16; VHH; source: E. coli WK6, periplasmic extract, purified (HisTrap); not shown: His6, C-terminal, kept
# B10: Nb08 (VHH)
# VHH: QVQLQESGGGLVQPGGSLRLSCVTSGFTLDYYNIGWFRQAPGKEREGVSCISISDGSTYYADSVKGRFTISRDNAKNTVYLQMNSLKPEDTAVYYCAIRLDGSSCDPEEYDYWGQGTQVTVSS
# notes: from an alpaca immunized with full-length VAR2CSA; pHEN6c vector; also called Nanobody 08; VHH; source: E. coli WK6, periplasmic extract, purified (HisTrap); not shown: His6, C-terminal, kept
# B11: Nb15 (VHH)
# VHH: QVQLQESGGGLVQPGGPLRLSCAASGFTFDNYAMGWFRQAPGKEREFVAAISWSAGTTYYADSVKGRFTISRDNAKNTVSLQMNSLKPEDTAVYYCAAAYDGITMVVEYTNEYEYDYWGQGTQVTVSS
# notes: from an alpaca immunized with full-length VAR2CSA; pHEN6c vector; also called Nanobody 15; VHH; source: E. coli WK6, periplasmic extract, purified (HisTrap); not shown: His6, C-terminal, kept
# B12: Nb03 (VHH)
# VHH: QVQLQESGGGLVQAGGSLRLSCVVSGHTFSGYVMGWFRQAPGKEREFVSSISGYGGITDYADSVKGRFTMSRDNAKNTVYLRMNSLKPEDTAVYYCAVRRSGSSREYDYWGQGTQVTVSS
# notes: from an alpaca immunized with full-length VAR2CSA; pHEN6c vector; also called Nanobody 03; VHH; source: E. coli WK6, periplasmic extract, purified (HisTrap); not shown: His6, C-terminal, kept
# B13: Nb05 (VHH)
# VHH: QVQLQESGGGLVQPRGSLRLSCTASERDFGLVVMGWHRQAPGKQRELVAQIGTGGRTNYADSVKGRFTISIDAAKNTVYLQMNNLKPEDTAVYYCNAPLSGIWGQGTQVTVSS
# notes: from an alpaca immunized with full-length VAR2CSA; pHEN6c vector; also called Nanobody 05; VHH; source: E. coli WK6, periplasmic extract, purified (HisTrap); not shown: His6, C-terminal, kept
# B14: Nb13 (VHH)
# VHH: QVQLQESGGGLVQPGGSLRLSCAFSGRTSRNYAMAWFRQAPGKEREFVAATSWNGDITPYGVVVKGRFTISRDNAKSTVYLKMNDLKPEDTAVYYCAAEPRFAPPVVAHEYDYWGRGTQVTVSS
# notes: from an alpaca immunized with full-length VAR2CSA; pHEN6c vector; also called Nanobody 13; VHH; source: E. coli WK6, periplasmic extract, purified (HisTrap); not shown: His6, C-terminal, kept
# B15: Nb06 (VHH)
# VHH: QVQLQESGGGLVQAGGSLRLSCAASGFTFDDYAIGWFRQAPGKEREGVSCISSSDGVTYYVDSVKGRFTISSDNAKNTVYLQMNSLKPEDTAVYHCAASPDYYCDAGFLNYGIDYWGEGTQVTVSS
# notes: from an alpaca immunized with full-length VAR2CSA; pHEN6c vector; also called Nanobody 06; VHH; source: E. coli WK6, periplasmic extract, purified (HisTrap); not shown: His6, C-terminal, kept
# Biological target: T1, native VAR2CSA on the surface of NF54 infected erythrocytes (Plasmodium falciparum NF54 (VAR2CSA …, UniProt Q8I639, strain))
# T1 construct: VAR2CSA of the P. falciparum parasite line NF54, native protein on infected erythrocytes; also called VAR2CSA-expressing IE (NF54); source: endogenous, on P. falciparum NF54-infected erythrocytes
# Experiment: flow cytometry on cells; late stage VAR2CSA-expressing IE (FCR3, 7201, NF54) incubated with Nb (0,1 mg/ml), 30 min at 4°C; detected with mouse anti-penta-His and FITC anti-mouse; specific recognition defined by an MFI ratio >1.2
# Details: one partner purified
row,Binder,binding result
1,B1,binds
2,B2,binds
3,B3,binds
4,B4,binds
5,B5,binds
6,B6,binds
7,B7,binds
8,B8,binds
9,B9,binds
10,B10,binds
11,B11,binds
12,B12,binds
13,B13,binds

# Biological target: T2, DBL1-ID2a protein of VAR2CSA (containing minimal CSA-binding region), baculovirus-produced (Plasmodium falciparum FCR3 (assumed for …, UniProt Q6UDW7, strain))
# T2 construct: DBL1-ID2a; source: baculovirus-produced
# Experiment: far-Western, overlay or dot blot; Western blot: recombinant VAR2CSA domain (0,4 µg/lane) run NON-REDUCED on SDS gel, blotted to nitrocellulose, probed with 50 nM Nb in TBST; rabbit anti-camel and HRP anti-rabbit
# Details: both partners purified
row,Binder,binding result
1,B2,binds
2,B6,binds
3,B7,binds
4,B8,binds

# Biological target: T3, ID1–ID2a minimal CSA-binding region of VAR2CSA, produced in E. coli (Plasmodium falciparum FCR3, UniProt Q6UDW7, strain)
# T3 construct: ID1–ID2a region; also called ID1–ID2a (coli); source: E. coli
# Experiment: ELISA; recombinant VAR2CSA protein or domain (50 nM in PBS) coated on MaxiSorp plates overnight at 4°C; Nb 50 nM in 1% skim milk in PBS, 90 min RT; detected with rabbit anti-camel and HRP anti-rabbit, OD 490 nm after 20 min
# Details: both partners purified
row,Binder,binding result
1,B2,binds
2,B6,binds
3,B7,binds
4,B8,binds

# Biological target: T4, VAR2CSA DBL6 domain, baculovirus-produced (Plasmodium falciparum FCR3, UniProt Q6UDW7, strain)
# T4 construct: DBL6 domain; also called DBL6ε; source: baculovirus expression system, as described in [11], [20]
# Experiment: as above
# Details: both partners purified
row,Binder,binding result
1,B2,no binding (tested: 50 nM)
2,B6,no binding (tested: 50 nM)
3,B7,no binding (tested: 50 nM)
4,B8,no binding (tested: 50 nM)

# Biological target: T5, VAR2CSA DBL3 domain, baculovirus-produced (Plasmodium falciparum FCR3 (implied), UniProt Q6UDW7, strain)
# T5 construct: DBL3 domain; also called DBL3X; source: baculovirus expression system, as described in [11], [20]
# Experiment: as above
# Details: both partners purified
row,Binder,binding result
1,B1,no binding (tested: 50 nM)
2,B2,no binding (tested: 50 nM)
3,B14,no binding (tested: 50 nM)
4,B3,no binding (tested: 50 nM)
5,B4,no binding (tested: 50 nM)
6,B5,no binding (tested: 50 nM)
7,B6,no binding (tested: 50 nM)
8,B7,no binding (tested: 50 nM)
9,B8,no binding (tested: 50 nM)
10,B9,no binding (tested: 50 nM)
11,B10,no binding (tested: 50 nM)
12,B11,no binding (tested: 50 nM)
13,B12,no binding (tested: 50 nM)
14,B15,no binding (tested: 50 nM)
15,B13,no binding (tested: 50 nM)

# Biological target: T6, ID1–ID2a minimal CSA-binding region of VAR2CSA, produced in Schneider 2 (S2) cells (Plasmodium falciparum FCR3, UniProt Q6UDW7, strain)
# T6 construct: ID1–ID2a region; also called ID1–ID2a (S2); source: Schneider 2 (S2) cells
# Experiment: as above
# Details: both partners purified
row,Binder,binding result
1,B2,binds
2,B6,binds
3,B7,binds
4,B8,binds

# Biological target: T7, ID1–ID2a minimal CSA-binding region of VAR2CSA, baculovirus-produced (Plasmodium falciparum FCR3, UniProt Q6UDW7, strain)
# T7 construct: VAR2CSA, P. falciparum FCR3; ID1–ID2a region encompassing DBL2X with the flanking parts ID1 and ID2; also called ID1–ID2a (BV); source: baculovirus expression system, as described in [11], [20]
# Experiment: as above
# Details: both partners purified
row,Binder,binding result
1,B2,binds
2,B6,binds
3,B7,binds
4,B8,binds

# Biological target: T4, VAR2CSA DBL6 domain, …
# Experiment: as above
# Details: both partners purified
# Remark: another data set of the same source
row,Binder,binding result
1,B10,binds
2,B11,binds
3,B15,binds

# Biological target: T8, full-length VAR2CSA (FV2) recombinant protein, FCR3 (Plasmodium falciparum FCR3, UniProt Q6UDW7, strain)
# T8 construct: VAR2CSA (PfEMP1 family), Plasmodium falciparum strain FCR3, full-length recombinant protein; also called FV2-FCR3; source: recombinant, purified, expressed as described in [33]
# Experiment: as above
# Details: both partners purified
row,Binder,binding result
1,B1,binds
2,B2,binds
3,B14,binds
4,B3,binds
5,B4,binds
6,B5,binds
7,B6,binds
8,B7,binds
9,B8,binds
10,B9,binds
11,B10,binds
12,B11,binds
13,B12,binds
14,B15,binds
15,B13,binds

# Source: publication PMC3897377, “Utilizing Nanobody Technology to Target Non-Immunodominant Domains of VAR2CSA” (PLoS ONE, 2014)
